Measured values taken from the supplement of paper PMC7125110.
± gives the standard error. Fewer inactive variants are shown than the library holds.

B1: glmS ribozyme (parent)
chain: AUAAAAGCGCCAGAACUACAGAAAUGUAGUUGACGAGGAGGAGGUUUAUCGAAUUUUCGGCGGAUGCCUCCAAA

Legend:
Conditions in all cases: with glucosamine-6-phosphate
glucosamine-6-phosphate [1] = variants of: B1; assay: self-cleavage kobs at 40 uM GlcN6P; higher = faster cleavage; RNA array
How it was run: (§1)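 kcat and KM were obtained from weighted Michaelis–Menten fits across concentrations of kobs values. Those came from one- or two-exponential decay fits to per-tile medians normalised to baseline and to non-cleaving reference variants. The variants were barcoded ribozymes transcribed in situ by E. coli RNA polymerase on sequenced MiSeq chips and tracked through a hybridised Cy3 probe at 37 °C, with 40 μM to 10 mM glucosamine-6-phosphate in HEPES/KCl/Mg(OAc)2 buffer flowed in.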

glucosamine-6-phosphate [2] = variants of: B1; assay: self-cleavage kobs at 160 uM GlcN6P; higher = faster cleavage; RNA array
How it was run: as §1

glucosamine-6-phosphate [3] = variants of: B1; assay: self-cleavage kobs at 640 uM GlcN6P; higher = faster cleavage; RNA array
How it was run: as §1

glucosamine-6-phosphate [4] = variants of: B1; assay: self-cleavage kobs at 2500 uM GlcN6P; higher = faster cleavage; RNA array
How it was run: as §1

glucosamine-6-phosphate [5] = variants of: B1; assay: self-cleavage kobs at 10000 uM GlcN6P; higher = faster cleavage; RNA array
How it was run: as §1

| Variant | self-cleavage kobs at 40 uM GlcN6P (glucosamine-6-phosphate [1]) | self-cleavage kobs at 160 uM GlcN6P (glucosamine-6-phosphate [2]) | self-cleavage kobs at 640 uM GlcN6P (glucosamine-6-phosphate [3]) | self-cleavage kobs at 2500 uM GlcN6P (glucosamine-6-phosphate [4]) | self-cleavage kobs at 10000 uM GlcN6P (glucosamine-6-phosphate [5]) |
| --- | --- | --- | --- | --- | --- |
| A15G C70A | 5.87e-05 ± 7.8e-06 s⁻¹ | 9.45e-05 ± 1.1e-05 s⁻¹ | 0.000211 ± 2.2e-05 s⁻¹ | 0.000382 ± 4e-05 s⁻¹ | 0.00111 ± 0.00023 s⁻¹ |
| G37U C68A | < 1e-05 s⁻¹ |  |  |  | < 1e-05 s⁻¹ |
| C11U A12U G13U A64C | < 1e-05 s⁻¹ |  |  |  | < 1e-05 s⁻¹ |
| C8A A15U G38A G41C A53G | < 1e-05 s⁻¹ |  |  |  |  |
| C11G C16A A48C | < 1e-05 s⁻¹ |  |  |  | < 1e-05 s⁻¹ |
| A15G C71U | 0.00111 ± 0.0001 s⁻¹ | 0.00193 ± 0.00039 s⁻¹ | 0.00696 ± 0.0013 s⁻¹ | 0.0534 ± 0.021 s⁻¹ | 0.0519 ± 0.014 s⁻¹ |
| G41A U46C | < 1e-05 s⁻¹ |  |  |  | 4.37e-05 ± 1.2e-05 s⁻¹ |
| A12G A64U C71U | < 1e-05 s⁻¹ |  |  |  |  |
| C50G C58G | 8.56e-05 ± 1.3e-05 s⁻¹ | 0.000155 ± 2.6e-05 s⁻¹ | 0.000235 ± 5.2e-05 s⁻¹ | 6.82e-05 ± 1.8e-05 s⁻¹ |  |
| G43A G62C | < 1e-05 s⁻¹ |  |  | < 1e-05 s⁻¹ | < 1e-05 s⁻¹ |
| C11U A48C | < 1e-05 s⁻¹ | < 1e-05 s⁻¹ | < 1e-05 s⁻¹ | < 1e-05 s⁻¹ | < 1e-05 s⁻¹ |
| G38A A42C | < 1e-05 s⁻¹ |  |  |  | < 1e-05 s⁻¹ |
| C50G U69A | 0.000132 ± 2.4e-05 s⁻¹ | 0.000172 ± 2.9e-05 s⁻¹ | 0.000587 ± 0.0001 s⁻¹ | 0.000186 ± 2.8e-05 s⁻¹ | 7.99e-05 ± 1.5e-05 s⁻¹ |
| A6U C11U G26U U56C | < 1e-05 s⁻¹ |  |  |  |  |
| G9A G62A | < 1e-05 s⁻¹ | < 1e-05 s⁻¹ | < 1e-05 s⁻¹ |  |  |
| A6G C8U U57C C67U | < 1e-05 s⁻¹ |  |  |  | < 1e-05 s⁻¹ |
| G32U G63A C67U | < 1e-05 s⁻¹ |  |  | < 1e-05 s⁻¹ | < 1e-05 s⁻¹ |
| G13A G62U | < 1e-05 s⁻¹ | < 1e-05 s⁻¹ | < 1e-05 s⁻¹ | < 1e-05 s⁻¹ | < 1e-05 s⁻¹ |
| G9C G63A | < 1e-05 s⁻¹ |  | < 1e-05 s⁻¹ |  |  |
| A6C A36U | < 1e-05 s⁻¹ |  |  | < 1e-05 s⁻¹ | < 1e-05 s⁻¹ |
| A6U G9A U65G C70A | < 1e-05 s⁻¹ |  |  |  |  |
| C8A C16U U45C G62U C70A | < 1e-05 s⁻¹ |  |  |  |  |
| C10G G29A A48G | < 1e-05 s⁻¹ |  |  |  |  |

| Variant | self-cleavage kobs at 40 uM GlcN6P (glucosamine-6-phosphate [1]) | self-cleavage kobs at 160 uM GlcN6P (glucosamine-6-phosphate [2]) | self-cleavage kobs at 640 uM GlcN6P (glucosamine-6-phosphate [3]) | self-cleavage kobs at 2500 uM GlcN6P (glucosamine-6-phosphate [4]) | self-cleavage kobs at 10000 uM GlcN6P (glucosamine-6-phosphate [5]) |
| --- | --- | --- | --- | --- | --- |
| G7C C10U U30A U46A | < 1e-05 s⁻¹ |  |  |  |  |
| G32U C50G C61A | 0.000162 ± 2.5e-05 s⁻¹ |  |  |  | 0.000319 ± 4.2e-05 s⁻¹ |
| G7A A48C G59A A64G | < 1e-05 s⁻¹ |  |  |  | < 1e-05 s⁻¹ |
| A15G A42G A53G | 0.00166 ± 0.00034 s⁻¹ |  | 0.00796 ± 0.003 s⁻¹ |  |  |
| U31C U45C C58A C61G C67G | < 1e-05 s⁻¹ |  |  |  | < 1e-05 s⁻¹ |
| C8A A15U U31A G41U C50U G51U G62A | < 1e-05 s⁻¹ |  |  | < 1e-05 s⁻¹ | < 1e-05 s⁻¹ |
| C34G A36U U46A A52G C71A | < 1e-05 s⁻¹ | < 1e-05 s⁻¹ | < 1e-05 s⁻¹ |  | < 1e-05 s⁻¹ |
| U30C G41A A42C C50G | < 1e-05 s⁻¹ |  |  |  | < 1e-05 s⁻¹ |
| A15G G44U C68G | < 1e-05 s⁻¹ |  |  |  |  |
| C8A C16G | < 1e-05 s⁻¹ | < 1e-05 s⁻¹ | < 1e-05 s⁻¹ | < 1e-05 s⁻¹ | < 1e-05 s⁻¹ |
| G13C C61U | < 1e-05 s⁻¹ | < 1e-05 s⁻¹ | < 1e-05 s⁻¹ | < 1e-05 s⁻¹ |  |
| U31A A52G C67G | 6.56e-05 ± 1.9e-05 s⁻¹ |  |  |  | 9.04e-05 ± 1.2e-05 s⁻¹ |
| C10U G32A A39C U57C C61G C68G | < 1e-05 s⁻¹ |  | < 1e-05 s⁻¹ |  | < 1e-05 s⁻¹ |
| A6C A48C | < 1e-05 s⁻¹ | < 1e-05 s⁻¹ | < 1e-05 s⁻¹ | < 1e-05 s⁻¹ | < 1e-05 s⁻¹ |
| G9C A39G | < 1e-05 s⁻¹ |  |  | < 1e-05 s⁻¹ | < 1e-05 s⁻¹ |
| A42C U45A | < 1e-05 s⁻¹ |  | < 1e-05 s⁻¹ | < 1e-05 s⁻¹ |  |
| C16G G29U C71U | 0.000193 ± 4.3e-05 s⁻¹ |  | 0.00358 ± 0.00079 s⁻¹ | 0.00344 ± 0.0014 s⁻¹ | 0.013 ± 0.0037 s⁻¹ |
| G37U G44C | < 1e-05 s⁻¹ | < 1e-05 s⁻¹ | < 1e-05 s⁻¹ |  |  |
| G51A A64U | < 1e-05 s⁻¹ | < 1e-05 s⁻¹ |  |  |  |
| C10U A15C C34A A36G G43C U49C | < 1e-05 s⁻¹ | < 1e-05 s⁻¹ |  | < 1e-05 s⁻¹ | < 1e-05 s⁻¹ |
| G37U G62A | < 1e-05 s⁻¹ | < 1e-05 s⁻¹ |  |  |  |
| G51U G60U | < 1e-05 s⁻¹ | < 1e-05 s⁻¹ | < 1e-05 s⁻¹ | < 1e-05 s⁻¹ | < 1e-05 s⁻¹ |
| G7C C16U U31A G41U | < 1e-05 s⁻¹ |  |  | < 1e-05 s⁻¹ | < 1e-05 s⁻¹ |
